Test: melting temperature; melt of duplexes
Conditions: sodium 0.0675 M; strand 1 µM

| Substance | Tm [°C] |
| --- | --- |
| CGACGTGCTGGATGTGCTG+CAGCACATGGCGCACGTCG ((((((((...((((((((+))))))))...)))))))) | 49.6 |
| CGACGTGCTGGATGTGCTG+CAGCACATGTCGCACGTCG ((((((((...((((((((+))))))))...)))))))) | 50.3 |
| CGACGTGCTGGATGTGCTG+CAGCACATGTTGCACGTCG ((((((((...((((((((+))))))))...)))))))) | 51.4 |
| CGACGTGCTGGATGTGCTG+CAGCACATTAAGCACGTCG (((((((((..((((((((+))))))))..))))))))) | 54.8 |
| CGACGTGCTGGATGTGCTG+CAGCACATTCAGCACGTCG ((((((((((.((((((((+)))))))).)))))))))) | 60 |
| CGACGTGCTGGATGTGCTG+CAGCACATTCCGCACGTCG ((((((((.(.((((((((+)))))))).).)))))))) | 53.9 |
| CGACGTGCTGGATGTGCTG+CAGCACATTCTGCACGTCG ((((((((.(.((((((((+)))))))).).)))))))) | 55.6 |
| CGACGTGCTGGATGTGCTG+CAGCACATTGCGCACGTCG ((((((((...((((((((+))))))))...)))))))) | 49.5 |
| CGACGTGCTGGATGTGCTG+CAGCACATTGTGCACGTCG ((((((((...((((((((+))))))))...)))))))) | 48.3 |
| CGACGTGCTGGATGTGCTG+CAGCACATTTAGCACGTCG (((((((((..((((((((+))))))))..))))))))) | 54 |
| CGACGTGCTGTATGTGCTG+CAGCACATAGAGCACGTCG (((((((((.(((((((((+))))))))).))))))))) | 55.9 |
| CGACGTGCTGTATGTGCTG+CAGCACATAGTGCACGTCG ((((((((..(((((((((+)))))))))..)))))))) | 48 |
| CGACGTGCTGTATGTGCTG+CAGCACATATAGCACGTCG (((((((((.(((((((((+))))))))).))))))))) | 57 |
| CGACGTGCTGTATGTGCTG+CAGCACATATCGCACGTCG ((((((((..(((((((((+)))))))))..)))))))) | 50.9 |
| CGACGTGCTGTATGTGCTG+CAGCACATATGGCACGTCG ((((((((..(((((((((+)))))))))..)))))))) | 54.4 |
| CGACGTGCTGTATGTGCTG+CAGCACATATTGCACGTCG ((((((((..(((((((((+)))))))))..)))))))) | 52.7 |
| CGACGTGCTGTATGTGCTG+CAGCACATCACGCACGTCG ((((((((...((((((((+))))))))...)))))))) | 50.7 |
| CGACGTGCTGTATGTGCTG+CAGCACATCAGGCACGTCG ((((((((...((((((((+))))))))...)))))))) | 51.7 |
| CGACGTGCTGTATGTGCTG+CAGCACATCTCGCACGTCG ((((((((...((((((((+))))))))...)))))))) | 48.9 |
| CGACGTGCTGTATGTGCTG+CAGCACATCTGGCACGTCG ((((((((...((((((((+))))))))...)))))))) | 50.9 |
| CGACGTGCTGTATGTGCTG+CAGCACATGACGCACGTCG ((((((((...((((((((+))))))))...)))))))) | 47.9 |
| CGACGTGCTGTATGTGCTG+CAGCACATGATGCACGTCG ((((((((...((((((((+))))))))...)))))))) | 51.3 |
| CGACGTGCTGTATGTGCTG+CAGCACATGCAGCACGTCG ((((((((((.((((((((+)))))))).)))))))))) | 60.3 |
| CGACGTGCTGTATGTGCTG+CAGCACATGCCGCACGTCG ((((((((.(.((((((((+)))))))).).)))))))) | 52.8 |

| Substance | Tm [°C] |
| --- | --- |
| CGACGTGCTGTATGTGCTG+CAGCACATGCGGCACGTCG ((((((((.(.((((((((+)))))))).).)))))))) | 55.7 |
| CGACGTGCTGTATGTGCTG+CAGCACATGGTGCACGTCG ((((((((...((((((((+))))))))...)))))))) | 47.2 |
| CGACGTGCTGTATGTGCTG+CAGCACATGTAGCACGTCG (((((((((..((((((((+))))))))..))))))))) | 53.3 |
| CGACGTGCTGTATGTGCTG+CAGCACATGTGGCACGTCG ((((((((...((((((((+))))))))...)))))))) | 51 |
| CGACGTGCTGTATGTGCTG+CAGCACATGTTGCACGTCG ((((((((...((((((((+))))))))...)))))))) | 50.4 |
| CGACGTGCTGTATGTGCTG+CAGCACATTCAGCACGTCG ((((((((((.((((((((+)))))))).)))))))))) | 57.5 |
| CGACGTGCTGTATGTGCTG+CAGCACATTCCGCACGTCG ((((((((.(.((((((((+)))))))).).)))))))) | 50.1 |
| CGACGTGCTGTATGTGCTG+CAGCACATTCTGCACGTCG ((((((((.(.((((((((+)))))))).).)))))))) | 52 |
| CGACGTGCTGTATGTGCTG+CAGCACATTTAGCACGTCG (((((((((..((((((((+))))))))..))))))))) | 51.5 |
| CGACGTGCTGTATGTGCTG+CAGCACATTTTGCACGTCG ((((((((...((((((((+))))))))...)))))))) | 49.2 |
| CGACGTGCTTAATGTGCTG+CAGCACATAAAGCACGTCG ((((((((((.((((((((+)))))))).)))))))))) | 56.2 |
| CGACGTGCTTAATGTGCTG+CAGCACATAGAGCACGTCG (((((((((..((((((((+))))))))..))))))))) | 53.1 |
| CGACGTGCTTAATGTGCTG+CAGCACATATAGCACGTCG (((((((((..((((((((+))))))))..))))))))) | 54.2 |
| CGACGTGCTTAATGTGCTG+CAGCACATATGGCACGTCG ((((((((...((((((((+))))))))...)))))))) | 51.4 |
| CGACGTGCTTAATGTGCTG+CAGCACATCAAGCACGTCG ((((((((((.((((((((+)))))))).)))))))))) | 55 |
| CGACGTGCTTAATGTGCTG+CAGCACATCCGGCACGTCG ((((((((...((((((((+))))))))...)))))))) | 49 |
| CGACGTGCTTAATGTGCTG+CAGCACATCGTGCACGTCG ((((((((...((((((((+))))))))...)))))))) | 43.3 |
| CGACGTGCTTAATGTGCTG+CAGCACATCTGGCACGTCG ((((((((...((((((((+))))))))...)))))))) | 49.7 |
| CGACGTGCTTAATGTGCTG+CAGCACATCTTGCACGTCG ((((((((...((((((((+))))))))...)))))))) | 48.9 |
| CGACGTGCTTAATGTGCTG+CAGCACATGAAGCACGTCG ((((((((((.((((((((+)))))))).)))))))))) | 57.4 |
| CGACGTGCTTAATGTGCTG+CAGCACATGCAGCACGTCG (((((((((..((((((((+))))))))..))))))))) | 52 |
| CGACGTGCTTAATGTGCTG+CAGCACATGGTGCACGTCG ((((((((...((((((((+))))))))...)))))))) | 50.3 |
| CGACGTGCTTAATGTGCTG+CAGCACATTACGCACGTCG ((((((((.((((((((((+)))))))))).)))))))) | 54.8 |
| CGACGTGCTTAATGTGCTG+CAGCACATTATGCACGTCG ((((((((.((((((((((+)))))))))).)))))))) | 56.5 |

| Substance | Tm [°C] |
| --- | --- |
| CGACGTGCTTAATGTGCTG+CAGCACATTCAGCACGTCG (((((((((.(((((((((+))))))))).))))))))) | 55.5 |
| CGACGTGCTTAATGTGCTG+CAGCACATTGAGCACGTCG (((((((((.(((((((((+))))))))).))))))))) | 56.9 |
| CGACGTGCTTAATGTGCTG+CAGCACATTTAGCACGTCG (((((((((.(((((((((+))))))))).))))))))) | 55.5 |
| CGACGTGCTTAATGTGCTG+CAGCACATTTCGCACGTCG ((((((((..(((((((((+)))))))))..)))))))) | 51 |
| CGACGTGCTTAATGTGCTG+CAGCACATTTGGCACGTCG ((((((((..(((((((((+)))))))))..)))))))) | 53.4 |
| CGACGTGCTTAATGTGCTG+CAGCACATTTTGCACGTCG ((((((((..(((((((((+)))))))))..)))))))) | 52.5 |
| CGACGTGCTTCATGTGCTG+CAGCACATAATGCACGTCG ((((((((.(.((((((((+)))))))).).)))))))) | 50.4 |
| CGACGTGCTTCATGTGCTG+CAGCACATACGGCACGTCG ((((((((...((((((((+))))))))...)))))))) | 47.7 |
| CGACGTGCTTCATGTGCTG+CAGCACATACTGCACGTCG ((((((((...((((((((+))))))))...)))))))) | 48.3 |
| CGACGTGCTTCATGTGCTG+CAGCACATATAGCACGTCG (((((((((..((((((((+))))))))..))))))))) | 51.5 |
| CGACGTGCTTCATGTGCTG+CAGCACATATTGCACGTCG ((((((((...((((((((+))))))))...)))))))) | 49.1 |
| CGACGTGCTTCATGTGCTG+CAGCACATCCCGCACGTCG ((((((((...((((((((+))))))))...)))))))) | 47.5 |
| CGACGTGCTTCATGTGCTG+CAGCACATCCGGCACGTCG ((((((((...((((((((+))))))))...)))))))) | 47.8 |
| CGACGTGCTTCATGTGCTG+CAGCACATCGTGCACGTCG ((((((((...((((((((+))))))))...)))))))) | 43.2 |
| CGACGTGCTTCATGTGCTG+CAGCACATCTAGCACGTCG (((((((((..((((((((+))))))))..))))))))) | 50.3 |
| CGACGTGCTTCATGTGCTG+CAGCACATCTCGCACGTCG ((((((((...((((((((+))))))))...)))))))) | 47 |
| CGACGTGCTTCATGTGCTG+CAGCACATCTGGCACGTCG ((((((((...((((((((+))))))))...)))))))) | 48.9 |
| CGACGTGCTTCATGTGCTG+CAGCACATCTTGCACGTCG ((((((((...((((((((+))))))))...)))))))) | 48.3 |
| CGACGTGCTTCATGTGCTG+CAGCACATGAAGCACGTCG (((((((((((((((((((+))))))))))))))))))) | 64.4 |
| CGACGTGCTTCATGTGCTG+CAGCACATGACGCACGTCG ((((((((.((((((((((+)))))))))).)))))))) | 55.1 |
| CGACGTGCTTCATGTGCTG+CAGCACATGCAGCACGTCG (((((((((.(((((((((+))))))))).))))))))) | 56.9 |
| CGACGTGCTTCATGTGCTG+CAGCACATGGAGCACGTCG (((((((((.(((((((((+))))))))).))))))))) | 60 |
| CGACGTGCTTCATGTGCTG+CAGCACATGGCGCACGTCG ((((((((..(((((((((+)))))))))..)))))))) | 53 |
| CGACGTGCTTCATGTGCTG+CAGCACATGTCGCACGTCG ((((((((..(((((((((+)))))))))..)))))))) | 52.2 |
